Measurements published in article PMC11739650 (Communications Biology, 2025).
Substitutions are numbered along the chain they refer to. Names may count otherwise. “And” between values parts separate entries of the source, which are not always exact repeats. Equal entries are not always repeated.

B1: FliF (flagellar MS-ring protein), wild type (natural protein, Salmonella enterica serovar Typhimurium, UniProt P15928 1-560, looked up)
chain: MSATASTATQPKPLEWLNRLRANPRIPLIVAGSAAVAIVVAMVLWAKTPDYRTLFSNLSDQDGGAIVAQLTQMNIPYRFANGSGAIEVPADKVHELRLRLAQQGLPKGGAVGFELLDQEKFGISQFSEQVNYQRALEGELARTIETLGPVKSARVHLAMPKPSLFVREQKSPSASVTVTLEPGRALDEGQISAVVHLVSSAVAGLPPGNVTLVDQSGHLLTQSNTSGRDLNDAQLKFANDVESRIQRRIEAILSPIVGNGNVHAQVTAQLDFANKEQTEEHYSPNGDASKATLRSRQLNISEQVGAGYPGGVPGALSNQPAPPNEAPIATPPTNQQNAQNTPQTSTSTNSNSAGPRSTQRNETSNYEVDRTIRHTKMNVGDIERLSVAVVVNYKTLADGKPLPLTADQMKQIEDLTREAMGFSDKRGDTLNVVNSPFSAVDNTGGELPFWQQQSFIDQLLAAGRWLLVLVVAWILWRKAVRPQLTRRVEEAKAAQEQAQVRQETEEAVEVRLSKDEQLQQRRANQRLGAEVMSQRIREMSDNDPRVVALVIRQWMSNDHE
B2: FliF(G217P) (natural protein, Salmonella enterica serovar Typhimurium)
chain: B1 chain with G217P
B3: FliF(G217W) (natural protein, Salmonella enterica serovar Typhimurium)
chain: B1 chain with G217W
B4: FliF(∆165–167) (natural protein, Salmonella enterica serovar Typhimurium)
chain: MSATASTATQPKPLEWLNRLRANPRIPLIVAGSAAVAIVVAMVLWAKTPDYRTLFSNLSDQDGGAIVAQLTQMNIPYRFANGSGAIEVPADKVHELRLRLAQQGLPKGGAVGFELLDQEKFGISQFSEQVNYQRALEGELARTIETLGPVKSARVHLAMPKPSLEQKSPSASVTVTLEPGRALDEGQISAVVHLVSSAVAGLPPGNVTLVDQSGHLLTQSNTSGRDLNDAQLKFANDVESRIQRRIEAILSPIVGNGNVHAQVTAQLDFANKEQTEEHYSPNGDASKATLRSRQLNISEQVGAGYPGGVPGALSNQPAPPNEAPIATPPTNQQNAQNTPQTSTSTNSNSAGPRSTQRNETSNYEVDRTIRHTKMNVGDIERLSVAVVVNYKTLADGKPLPLTADQMKQIEDLTREAMGFSDKRGDTLNVVNSPFSAVDNTGGELPFWQQQSFIDQLLAAGRWLLVLVVAWILWRKAVRPQLTRRVEEAKAAQEQAQVRQETEEAVEVRLSKDEQLQQRRANQRLGAEVMSQRIREMSDNDPRVVALVIRQWMSNDHE
B5: FliF(∆214–220) (natural protein, Salmonella enterica serovar Typhimurium)
chain: MSATASTATQPKPLEWLNRLRANPRIPLIVAGSAAVAIVVAMVLWAKTPDYRTLFSNLSDQDGGAIVAQLTQMNIPYRFANGSGAIEVPADKVHELRLRLAQQGLPKGGAVGFELLDQEKFGISQFSEQVNYQRALEGELARTIETLGPVKSARVHLAMPKPSLFVREQKSPSASVTVTLEPGRALDEGQISAVVHLVSSAVAGLPPGNVTLVTQSNTSGRDLNDAQLKFANDVESRIQRRIEAILSPIVGNGNVHAQVTAQLDFANKEQTEEHYSPNGDASKATLRSRQLNISEQVGAGYPGGVPGALSNQPAPPNEAPIATPPTNQQNAQNTPQTSTSTNSNSAGPRSTQRNETSNYEVDRTIRHTKMNVGDIERLSVAVVVNYKTLADGKPLPLTADQMKQIEDLTREAMGFSDKRGDTLNVVNSPFSAVDNTGGELPFWQQQSFIDQLLAAGRWLLVLVVAWILWRKAVRPQLTRRVEEAKAAQEQAQVRQETEEAVEVRLSKDEQLQQRRANQRLGAEVMSQRIREMSDNDPRVVALVIRQWMSNDHE
B6: FliF(∆221–227) (natural protein, Salmonella enterica serovar Typhimurium)
chain: B5 chain with T214D, N217G, T218H, S219L, G220L
B7: FliF(G217A) (natural protein, Salmonella enterica serovar Typhimurium)
chain: B1 chain with G217A

Key:
cryo-EM structure = target: the molecule itself; assay: cryo-EM structure
[1] = target: the molecule itself; assay: negative-stain electron microscopy

Protein	stoichiometry N (cryo-EM structure)	binding result [1]
B1	33 and 34	–
B2	–	binds
B3	–	binds
B4	–	binds
B5	–	binds
B6	–	binds
B7	–	binds
